Test [1] addresses T1, integrin β3 (integrin αvβ3) (human, UniProt P05106 27-788; P06756 31-1048).
T1 construct: whole, on cells; The assays detect the β3 chain with an antibody; The legend speaks of integrin αvβ3 on HSCs; also called Integrin B3; integrin β3/β5
Nature of the test: proximity ligation assay in human HSCs. On the procedure:
(§1) For the PLA incorporation assay, human HSCs were seeded at 2×10⁴ cells per well on the 18 mm circular cover glass in 12-well plates and cultured for 24 hours. After serum starvation for 24 hours, the cells were treated with 10 ng/ml of TGF-β1 and/or 500 ng/ml of NP-011, and then, further incubated for 30 minutes. The PLA incorporation was accessed using the Duolink In Situ Red Starter Kit (Merck) according to the manufacturer's instructions. Digital images of PLA-positive cells were captured using a microscope (Nikon) and analyzed using ImageJ software <https://imagej.nih.gov/iy>.
(§2) It was investigated herein the mechanism of action for NP-011's rapid and effective suppression TGF-β signaling observed in diseased liver (FIGS. 1E and 2F). One day after administration of NP-011 in TAA-induced fibrotic liver, NP-011 preferentially bound to α-SMA-positive HSCs, and some of NP-011 interacted with macrophages in the liver (FIG. 6). Integrin αvβ3 and αvβ5 on the surface of HSCs have been previously implicated in regulating fibrosis. Additionally, the crosstalk between integrin and TGF-β signaling may be important in the regulation of pathological epithelial to mesenchymal transition (EMT) and myofibroblast differentiation. […] As a consequences of NP-011 treatment in TGF-β1-treated HSCs, the proliferative HSCs returned to quiescent status (FIG. 7D). […]

For test [2], the target named is T2, integrin β5 (integrin αvβ5) (human, UniProt P18084 24-799; P06756 31-1048).
T2 construct: whole, on cells; The assays detect the β5 chain with an antibody; The legend speaks of integrin αvβ5 on HSCs; also called Integrin B5; integrin β3/β5
T2 sequence (P18084 24-799, chain 1 of 2): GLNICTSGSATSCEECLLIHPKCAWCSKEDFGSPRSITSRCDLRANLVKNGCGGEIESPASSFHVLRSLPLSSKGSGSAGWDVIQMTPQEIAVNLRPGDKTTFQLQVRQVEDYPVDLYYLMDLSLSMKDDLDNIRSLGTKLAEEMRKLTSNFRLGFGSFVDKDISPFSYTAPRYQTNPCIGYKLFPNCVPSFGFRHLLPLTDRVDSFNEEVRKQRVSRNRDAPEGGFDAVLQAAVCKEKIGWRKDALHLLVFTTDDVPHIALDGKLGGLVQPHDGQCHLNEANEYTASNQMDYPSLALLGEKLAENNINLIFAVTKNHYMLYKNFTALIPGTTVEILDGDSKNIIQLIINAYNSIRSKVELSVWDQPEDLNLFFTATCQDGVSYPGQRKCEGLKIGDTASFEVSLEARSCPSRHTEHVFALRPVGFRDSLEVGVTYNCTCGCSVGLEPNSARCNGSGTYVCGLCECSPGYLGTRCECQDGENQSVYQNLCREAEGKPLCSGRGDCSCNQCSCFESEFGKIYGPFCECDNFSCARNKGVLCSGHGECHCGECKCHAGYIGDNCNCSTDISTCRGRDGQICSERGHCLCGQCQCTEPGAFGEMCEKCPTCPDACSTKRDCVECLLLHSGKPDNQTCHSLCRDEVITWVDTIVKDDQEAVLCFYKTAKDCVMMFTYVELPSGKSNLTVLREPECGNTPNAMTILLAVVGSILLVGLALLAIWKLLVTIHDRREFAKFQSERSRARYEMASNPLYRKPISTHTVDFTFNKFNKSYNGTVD
T2 sequence (P06756 31-1048, chain 2 of 2): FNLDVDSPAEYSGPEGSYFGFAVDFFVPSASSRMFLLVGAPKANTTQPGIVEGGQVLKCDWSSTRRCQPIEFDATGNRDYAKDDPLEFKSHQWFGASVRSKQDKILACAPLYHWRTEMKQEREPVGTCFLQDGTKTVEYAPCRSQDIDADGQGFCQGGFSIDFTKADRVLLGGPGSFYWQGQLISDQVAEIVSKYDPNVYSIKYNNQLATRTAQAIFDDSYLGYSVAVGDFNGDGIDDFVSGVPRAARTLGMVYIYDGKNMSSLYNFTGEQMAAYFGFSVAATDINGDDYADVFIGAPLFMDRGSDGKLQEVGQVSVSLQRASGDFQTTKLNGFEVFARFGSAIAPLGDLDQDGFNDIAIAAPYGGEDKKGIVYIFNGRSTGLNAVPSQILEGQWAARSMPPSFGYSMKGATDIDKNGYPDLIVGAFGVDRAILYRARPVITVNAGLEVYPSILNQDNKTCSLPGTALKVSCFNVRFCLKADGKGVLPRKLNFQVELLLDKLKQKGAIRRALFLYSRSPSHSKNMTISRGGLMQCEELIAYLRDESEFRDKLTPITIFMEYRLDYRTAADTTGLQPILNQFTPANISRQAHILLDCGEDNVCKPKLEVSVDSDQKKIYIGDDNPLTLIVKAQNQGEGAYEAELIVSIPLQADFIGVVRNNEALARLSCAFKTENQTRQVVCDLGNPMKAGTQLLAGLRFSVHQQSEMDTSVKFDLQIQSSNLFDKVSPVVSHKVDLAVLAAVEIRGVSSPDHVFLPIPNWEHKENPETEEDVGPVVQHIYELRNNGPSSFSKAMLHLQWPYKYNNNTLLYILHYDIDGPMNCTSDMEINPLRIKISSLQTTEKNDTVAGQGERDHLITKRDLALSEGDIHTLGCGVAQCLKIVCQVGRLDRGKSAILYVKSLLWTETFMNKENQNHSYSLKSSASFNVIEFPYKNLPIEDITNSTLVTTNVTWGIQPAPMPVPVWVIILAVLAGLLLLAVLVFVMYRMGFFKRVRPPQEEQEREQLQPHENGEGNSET
Nature of the test: proximity ligation assay in human HSCs. On the procedure: as §1, §2

T1 sequence (P05106 27-788, chain 1 of 2): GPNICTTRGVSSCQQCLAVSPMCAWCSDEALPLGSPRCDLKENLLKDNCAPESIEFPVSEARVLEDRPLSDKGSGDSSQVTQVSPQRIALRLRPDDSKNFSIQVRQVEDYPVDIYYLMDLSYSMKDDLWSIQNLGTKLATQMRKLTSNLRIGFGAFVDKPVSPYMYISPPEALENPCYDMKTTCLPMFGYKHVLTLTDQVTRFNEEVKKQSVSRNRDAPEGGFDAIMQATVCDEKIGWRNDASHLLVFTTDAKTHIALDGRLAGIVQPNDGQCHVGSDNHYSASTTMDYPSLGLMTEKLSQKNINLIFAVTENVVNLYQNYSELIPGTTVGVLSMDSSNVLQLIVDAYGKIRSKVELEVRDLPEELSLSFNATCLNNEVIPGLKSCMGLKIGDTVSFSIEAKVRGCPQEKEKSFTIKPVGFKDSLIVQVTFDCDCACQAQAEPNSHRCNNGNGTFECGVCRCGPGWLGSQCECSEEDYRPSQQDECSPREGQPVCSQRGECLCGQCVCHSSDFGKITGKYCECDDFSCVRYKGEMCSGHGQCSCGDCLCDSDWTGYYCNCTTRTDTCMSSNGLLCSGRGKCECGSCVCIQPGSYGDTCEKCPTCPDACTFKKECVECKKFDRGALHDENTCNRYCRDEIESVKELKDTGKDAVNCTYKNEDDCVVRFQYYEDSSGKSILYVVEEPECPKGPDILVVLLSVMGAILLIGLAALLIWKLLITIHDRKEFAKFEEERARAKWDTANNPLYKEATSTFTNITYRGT
T1 sequence (P06756 31-1048, chain 2 of 2): as the sequence (P06756 31-1048, chain 2 of 2) above

B1: TGF-β receptor 1 (TGFBRI) (receptor, human, UniProt P36897 34-503, looked up)
chain: LQCFCHLCTKDNFTCVTDGLCFVSVTETTDKVIHNSMCIAEIDLIPRDRPFVCAPSSKTGSVTTTYCCNQDHCNKIELPTTVKSSPGLGPVELAAVIAGPVCFVCISLMLMVYICHNRTVIHHRVPNEEDPSLDRPFISEGTTLKDLIYDMTTSGSGSGLPLLVQRTIARTIVLQESIGKGRFGEVWRGKWRGEEVAVKIFSSREERSWFREAEIYQTVMLRHENILGFIAADNKDNGTWTQLWLVSDYHEHGSLFDYLNRYTVTVEGMIKLALSTASGLAHLHMEIVGTQGKPAIAHRDLKSKNILVKKNGTCCIADLGLAVRHDSATDTIDIAPNHRVGTKRYMAPEVLDDSINMKHFESFKRADIYAMGLVFWEIARRCSIGGIHEDYQLPYYDLVPSDPSVEEMRKVVCEQKLRPNIPNRWQSCEALRVMAKIMRECWYANGAARLTALRIKKTLSQLSQQEGIKM
notes: whole, on cells; Endogenous protein of human HSCs; Detected in situ by PLA and pulled down from cell lysate with a TGFβRI antibody (Abcam ab31013); also called TGFβRI; TGFBR1
On to B1, for which the binding result in test [1] and in test [2] was “binds” throughout.
